In paper PMC4019985, “Mitochondrial thiol oxidase Erv1: both shuttle cysteine residues are required for its function with distinct roles” (Biochemical Journal, 2014):
Values joined by “and” are separate entries in the source; they are usually repeats but may differ in a detail not shown here. Equal values may be shown once.

B1: Erv1^CXXS (Erv1C33S) (enzyme, S. cerevisiae, UniProt P27882 1-189, looked up)
chain: MKAIDKMTDNPPQEGLSGRKIIYDEDGKPCRSSNTLLDFQYVTGKISNGLKNLSSNGKLAGTGALTGEASELMPGSRTYRKVDPPDVEQLGRSSWTLLHSVAASYPAQPTDQQKGEMKQFLNIFSHIYPCNWCAKDFEKYIRENAPQVESREELGRWMCEAHNKVNKKLRKPKFDCNFWEKRWKDGWDE
notes: Erv1, S. cerevisiae, full length, second shuttle cysteine changed to serine
B5: Erv1^SXXC (Erv1C30S) (enzyme, S. cerevisiae, UniProt P27882 1-189, looked up)
chain: MKAIDKMTDNPPQEGLSGRKIIYDEDGKPSRSCNTLLDFQYVTGKISNGLKNLSSNGKLAGTGALTGEASELMPGSRTYRKVDPPDVEQLGRSSWTLLHSVAASYPAQPTDQQKGEMKQFLNIFSHIYPCNWCAKDFEKYIRENAPQVESREELGRWMCEAHNKVNKKLRKPKFDCNFWEKRWKDGWDE
notes: Erv1, S. cerevisiae, full length, first shuttle cysteine changed to serine; Found as a tetramer (peak 1, yellow) and a dimer (peak 2, black, charge-transfer complex)

Columns and labels:
Cys30 = Cys30 (UniProt position 30, EDGKPCRSSNT); assay: chemical modification (monobromobimane alkylation) with fluorescence detection; details: 25°C; I = 0.15 M (constant ionic strength buffers, 120 mM NaCl); 15 mM acetic acid, 15 mM Mes and 30 mM Tris (pH 3.5–9.0), or 30 mM Aces, 15.6 mM Tris and 15.6 mM ethanolamine (pH 5.7–10). Both contained 120 mM NaCl and 0.1 mM DTPA.; Folded, FAD-bound. The single shuttle cysteine is reduced (free thiol, confirmed by AMS modification), and the active-site cysteines are replaced by serine.
Cys33 = Cys33 (UniProt position 33, KPSRSCNTLLD); assay: as above; details: 25°C; I = 0.15 M (constant ionic strength buffers, 120 mM NaCl); 15 mM acetic acid, 15 mM Mes and 30 mM Tris (pH 3.5–9.0), or 30 mM Aces, 15.6 mM Tris and 15.6 mM ethanolamine (pH 5.7–10). Both contained 120 mM NaCl and 0.1 mM DTPA.; Folded, FAD-bound. The single shuttle cysteine is reduced (free thiol, confirmed by AMS modification), and the active-site cysteines are replaced by serine.
[1] = target: the molecule itself; assay: SEC; Superdex 75 in buffer A (50 mM Tris/HCl pH 7.4, 150 mM NaCl); elution position compared with the Erv1 tetramer
[2] = target: the molecule itself; assay: non-reducing SDS/PAGE (intermolecular disulfide-bonded dimer); gel-filtration fractions of the purified proteins on Tris/Tricine SDS/PAGE (16% gel) under reducing and non-reducing conditions
Erv1^CXXS (Erv1C33S) = target: B1; assay: mixed disulfide trapping, non-reducing SDS/PAGE and Western blot; single cysteine mutants pre-treated with 2 mM TCEP, exchanged to buffer A, incubated at 5 uM each for 20 min at room temperature (stopped with 2.5 mM AMS, or 1 mM DTT as reducing control), or 50 uM Mia40 and 5 uM Erv1 over 10 min (stopped with 20 mM IAM); detected with an antibody against Erv1; details: both partners purified
Erv1^SXXC (Erv1C30S) = target: B5; assay: as above; details: both partners purified
[3] = target: the molecule itself; assay: SEC-MALS; Superdex 200 10/30 in buffer A (150 mM NaCl, 50 mM Tris/HCl pH 7.4), in-line DAWN EOS photometer and Optilab rEX refractor; the two gel-filtration peaks of the protein

For “Mitochondrial FAD-linked sulfhydryl (thiol) oxidase Erv1, triple mutant Erv1^CSSS (C33S/C130S/C133S) (Saccharomyces cerevisiae; C33S;C130S;C133S)”, the pKa (Cys30) was 8.39±0.12.

“Mitochondrial FAD-linked sulfhydryl (thiol) oxidase Erv1, triple mutant Erv1^SCSS (C30S/C130S/C133S) (Saccharomyces cerevisiae; C30S;C130S;C133S)” gave a pKa (Cys33) of 8.41±0.06.

B1 was tested, and the “stoichiometry N” value [1] was 4.

B2: Erv1 (essential for respiration and viability 1), wild-type (enzyme, S. cerevisiae, UniProt P27882 1-189, looked up)
chain: MKAIDKMTDNPPQEGLSGRKIIYDEDGKPCRSCNTLLDFQYVTGKISNGLKNLSSNGKLAGTGALTGEASELMPGSRTYRKVDPPDVEQLGRSSWTLLHSVAASYPAQPTDQQKGEMKQFLNIFSHIYPCNWCAKDFEKYIRENAPQVESREELGRWMCEAHNKVNKKLRKPKFDCNFWEKRWKDGWDE
notes: Erv1, FAD-dependent thiol oxidase of the mitochondrial intermembrane space, S. cerevisiae, full length; Construct in pET24a(+) via Nde1/Xho1; also called WT Erv1; WT
B2: binds [2].

B3: Erv1 redox active-site disulfide double cysteine mutant (C130/C133S) (enzyme, S. cerevisiae, UniProt P27882 1-189, looked up)
chain: MKAIDKMTDNPPQEGLSGRKIIYDEDGKPCRSCNTLLDFQYVTGKISNGLKNLSSNGKLAGTGALTGEASELMPGSRTYRKVDPPDVEQLGRSSWTLLHSVAASYPAQPTDQQKGEMKQFLNIFSHIYPSNWSAKDFEKYIRENAPQVESREELGRWMCEAHNKVNKKLRKPKFDCNFWEKRWKDGWDE
notes: Erv1, S. cerevisiae, full length, both active-site cysteines changed to serine; also called Erv1^CCSS
B3: binds [2].

B4: Mia40^CPS, core domain Mia40c (amino acids 284-403) with the second cysteine of the CPC motif changed to serine (domain or fragment, S. cerevisiae, UniProt P36046 284-403, looked up)
chain: AYNPDTGEINWDCPSLGGMAHGPCGEEFKSAFSCFVYSEAEPKGIDCVEKFQHMQDCFRKYPEHYAEQLKETSDDEEPQDKVKVNTIESAPNVSSAKENAAKKAEQSDVKKEPLNEESKP
notes: Mia40, S. cerevisiae, core domain Mia40c, residues 284-403 (~15 kDa); second cysteine of the CPC motif (Cys298) changed to serine; source: purified (glutathione-Sepharose 4B, thrombin cleavage, Superdex 75)
B4: binds (Erv1^CXXS (Erv1C33S)); binds (Erv1^SXXC (Erv1C30S)).

For B5, the “stoichiometry N” value [3] was 4 and 2.

B6: Mia40^SPC, core domain Mia40c (amino acids 284-403) with the first cysteine of the CPC motif changed to serine (domain or fragment, S. cerevisiae, UniProt P36046 284-403, looked up)
chain: AYNPDTGEINWDSPCLGGMAHGPCGEEFKSAFSCFVYSEAEPKGIDCVEKFQHMQDCFRKYPEHYAEQLKETSDDEEPQDKVKVNTIESAPNVSSAKENAAKKAEQSDVKKEPLNEESKP
notes: Mia40, S. cerevisiae, core domain Mia40c, residues 284-403 (~15 kDa); first cysteine of the CPC motif (Cys296) changed to serine; source: purified (glutathione-Sepharose 4B, thrombin cleavage, Superdex 75)
B6: binds (Erv1^CXXS (Erv1C33S)); binds (Erv1^SXXC (Erv1C30S)).
